Common to all, as to test: native MS
For series [1], the target named is His6-tagged Salmonella FrlB E224Q/H240N (Salmonella).
For series [2], the target named is wild-type Salmonella FrlB deglycase (Salmonella).
The series “native MS” deals with the molecule itself.

As usually defined, the stoichiometry N is the number of molecules, sites or subunits per partner or assembly. As for “His6-tagged Salmonella FrlB E224Q/H240N (enzyme)”, the stoichiometry N in series [1] is 2. “wild-type Salmonella FrlB deglycase (enzyme)” came in with a stoichiometry N in series [2] of 2.

B1: His6-tagged Salmonella YidA (enzyme, UniProt A0A0F6B8Z9 1-281, looked up)
chain: MAIKLIAIDMDGTLLLPDHTISPAVKNAIAAAREKGVNVVLTTGRPYAGVHSYLKELHMEQPGDYCITYNGALVQKAGDGSTVAQTALSYDDYRYLEKLSREVGSHFHALDRNTLYTANRDISYYTVHESYVATIPLVFCEAEKMDPNTQFLKVMMIDEPAVLDRAIARIPAEVKEKYTVLKSAPYFLEILDKRVNKGTGVKSLVEALGIKPEEVMAIGDQENDIAMIEYAGMGVAMDNAIPSVKEVANFVTKSNLEDGVAWAIEKFVLNPDHSSGHFPAR
With B1, in the series “native MS”, the “stoichiometry N” value was determined as 2.

(Values after publication PMC9080447 (Biochemistry, 2021).)
